B1: MTSP-1 I41R/ins97aV/F97D/T98P/F99L/C122S/G151N/Q175L/Q192E (enzyme)
chain: VVGGTDADEGEWPWQVSLHALGQGHRCGASLISPNWLVSAAHCYIDDRGFRYSDPTQWTAFLGLHDQSQRSAPGVQERRLKRIISHPFFNDDVPLDYDIALLELEKPAEYSSMVRPISLPDASHVFPAGKAIWVTGWGHTQYGGTNALILQKGEIRVINQTTCENLLPQLITPRMMCVGFLSGGVDSCEGDSGGPLSSVEADGRIFQAGVVSWGDGCAQRNKPGVYTRLPLFRDWIKENTGV
B2: MTSP-1 I41D/ins97aE/F97T/T98G/F99L/C122S/G151N/Q175L/Q192E/Q209L (enzyme)
chain: VVGGTDADEGEWPWQVSLHALGQGHDCGASLISPNWLVSAAHCYIDDRGFRYSDPTQWTAFLGLHDQSQRSAPGVQERRLKRIISHPFFNDTEGLDYDIALLELEKPAEYSSMVRPISLPDASHVFPAGKAIWVTGWGHTQYGGTNALILQKGEIRVINQTTCENLLPQLITPRMMCVGFLSGGVDSCEGDSGGPLSSVEADGRIFLAGVVSWGDGCAQRNKPGVYTRLPLFRDWIKENTGV
B3: MTSP-1 Q38R/I41S/D60bH/F60eV/F97T/ins97aE/T98G/F99L/C122S/Q175L/Q192E (enzyme)
chain: VVGGTDADEGEWPWQVSLHALGRGHSCGASLISPNWLVSAAHCYIDHRGVRYSDPTQWTAFLGLHDQSQRSAPGVQERRLKRIISHPFFNDTEGLDYDIALLELEKPAEYSSMVRPISLPDASHVFPAGKAIWVTGWGHTQYGGTGALILQKGEIRVINQTTCENLLPQLITPRMMCVGFLSGGVDSCEGDSGGPLSSVEADGRIFQAGVVSWGDGCAQRNKPGVYTRLPLFRDWIKENTGV
B4: MTSP-1 Q38E/H40R/I41H/D60bE/F97D/F99L/C122S/Q192G (enzyme)
chain: VVGGTDADEGEWPWQVSLHALGEGRHCGASLISPNWLVSAAHCYIDERGFRYSDPTQWTAFLGLHDQSQRSAPGVQERRLKRIISHPFFNDDTLDYDIALLELEKPAEYSSMVRPISLPDASHVFPAGKAIWVTGWGHTQYGGTGALILQKGEIRVINQTTCENLLPQQITPRMMCVGFLSGGVDSCGGDSGGPLSSVEADGRIFQAGVVSWGDGCAQRNKPGVYTRLPLFRDWIKENTGV
B5: MTSP-1 Q38E/H40R/I41H/D60bN/F60eT/F97D/F99L/C122S/Q175L/Q192G (enzyme)
chain: VVGGTDADEGEWPWQVSLHALGEGRHCGASLISPNWLVSAAHCYIDNRGTRYSDPTQWTAFLGLHDQSQRSAPGVQERRLKRIISHPFFNDDTLDYDIALLELEKPAEYSSMVRPISLPDASHVFPAGKAIWVTGWGHTQYGGTGALILQKGEIRVINQTTCENLLPQLITPRMMCVGFLSGGVDSCGGDSGGPLSSVEADGRIFQAGVVSWGDGCAQRNKPGVYTRLPLFRDWIKENTGV
B6: MTSP-1 Q38E/H40R/I41H/D60bN/F97D/F99L/C122S/Q192G (enzyme)
chain: VVGGTDADEGEWPWQVSLHALGEGRHCGASLISPNWLVSAAHCYIDNRGFRYSDPTQWTAFLGLHDQSQRSAPGVQERRLKRIISHPFFNDDTLDYDIALLELEKPAEYSSMVRPISLPDASHVFPAGKAIWVTGWGHTQYGGTGALILQKGEIRVINQTTCENLLPQQITPRMMCVGFLSGGVDSCGGDSGGPLSSVEADGRIFQAGVVSWGDGCAQRNKPGVYTRLPLFRDWIKENTGV
B7: MTSP-1 Q38E/H40R/I41H/D60bK/F97D/F99L/C122S/Q175L/Q192G (enzyme)
chain: VVGGTDADEGEWPWQVSLHALGEGRHCGASLISPNWLVSAAHCYIDKRGFRYSDPTQWTAFLGLHDQSQRSAPGVQERRLKRIISHPFFNDDTLDYDIALLELEKPAEYSSMVRPISLPDASHVFPAGKAIWVTGWGHTQYGGTGALILQKGEIRVINQTTCENLLPQLITPRMMCVGFLSGGVDSCGGDSGGPLSSVEADGRIFQAGVVSWGDGCAQRNKPGVYTRLPLFRDWIKENTGV
B8: MTSP-1 Q38G/H40R/I41H/D60bK/F97D/F99L/C122S/Q175L/Q192G (enzyme)
chain: VVGGTDADEGEWPWQVSLHALGGGRHCGASLISPNWLVSAAHCYIDKRGFRYSDPTQWTAFLGLHDQSQRSAPGVQERRLKRIISHPFFNDDTLDYDIALLELEKPAEYSSMVRPISLPDASHVFPAGKAIWVTGWGHTQYGGTGALILQKGEIRVINQTTCENLLPQLITPRMMCVGFLSGGVDSCGGDSGGPLSSVEADGRIFQAGVVSWGDGCAQRNKPGVYTRLPLFRDWIKENTGV

The target of this assay is plasma purified human complement protein C3 (human) (UniProt P01024). The experiment in a line: cell-based or functional assay.
Sequence of plasma purified human complement protein C3 (human) (P01024 23-667, chain 1 of 2): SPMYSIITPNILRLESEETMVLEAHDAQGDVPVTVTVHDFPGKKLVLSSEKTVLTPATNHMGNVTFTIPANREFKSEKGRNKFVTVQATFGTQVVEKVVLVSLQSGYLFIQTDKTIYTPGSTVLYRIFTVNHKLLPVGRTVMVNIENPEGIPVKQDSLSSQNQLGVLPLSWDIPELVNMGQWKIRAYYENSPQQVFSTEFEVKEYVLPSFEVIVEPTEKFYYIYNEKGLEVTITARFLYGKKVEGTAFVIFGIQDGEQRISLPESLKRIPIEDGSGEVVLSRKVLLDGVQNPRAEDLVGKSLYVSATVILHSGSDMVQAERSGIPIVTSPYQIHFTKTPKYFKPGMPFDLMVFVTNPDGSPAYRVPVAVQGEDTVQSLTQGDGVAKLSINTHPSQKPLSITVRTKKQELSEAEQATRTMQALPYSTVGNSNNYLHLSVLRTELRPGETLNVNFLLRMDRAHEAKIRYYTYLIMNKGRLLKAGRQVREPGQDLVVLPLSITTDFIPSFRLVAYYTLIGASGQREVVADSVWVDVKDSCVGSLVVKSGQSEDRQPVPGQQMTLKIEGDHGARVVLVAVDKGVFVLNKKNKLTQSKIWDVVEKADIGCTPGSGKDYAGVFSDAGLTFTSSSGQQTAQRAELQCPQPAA
Sequence of plasma purified human complement protein C3 (human) (P01024 672-1663, chain 2 of 2): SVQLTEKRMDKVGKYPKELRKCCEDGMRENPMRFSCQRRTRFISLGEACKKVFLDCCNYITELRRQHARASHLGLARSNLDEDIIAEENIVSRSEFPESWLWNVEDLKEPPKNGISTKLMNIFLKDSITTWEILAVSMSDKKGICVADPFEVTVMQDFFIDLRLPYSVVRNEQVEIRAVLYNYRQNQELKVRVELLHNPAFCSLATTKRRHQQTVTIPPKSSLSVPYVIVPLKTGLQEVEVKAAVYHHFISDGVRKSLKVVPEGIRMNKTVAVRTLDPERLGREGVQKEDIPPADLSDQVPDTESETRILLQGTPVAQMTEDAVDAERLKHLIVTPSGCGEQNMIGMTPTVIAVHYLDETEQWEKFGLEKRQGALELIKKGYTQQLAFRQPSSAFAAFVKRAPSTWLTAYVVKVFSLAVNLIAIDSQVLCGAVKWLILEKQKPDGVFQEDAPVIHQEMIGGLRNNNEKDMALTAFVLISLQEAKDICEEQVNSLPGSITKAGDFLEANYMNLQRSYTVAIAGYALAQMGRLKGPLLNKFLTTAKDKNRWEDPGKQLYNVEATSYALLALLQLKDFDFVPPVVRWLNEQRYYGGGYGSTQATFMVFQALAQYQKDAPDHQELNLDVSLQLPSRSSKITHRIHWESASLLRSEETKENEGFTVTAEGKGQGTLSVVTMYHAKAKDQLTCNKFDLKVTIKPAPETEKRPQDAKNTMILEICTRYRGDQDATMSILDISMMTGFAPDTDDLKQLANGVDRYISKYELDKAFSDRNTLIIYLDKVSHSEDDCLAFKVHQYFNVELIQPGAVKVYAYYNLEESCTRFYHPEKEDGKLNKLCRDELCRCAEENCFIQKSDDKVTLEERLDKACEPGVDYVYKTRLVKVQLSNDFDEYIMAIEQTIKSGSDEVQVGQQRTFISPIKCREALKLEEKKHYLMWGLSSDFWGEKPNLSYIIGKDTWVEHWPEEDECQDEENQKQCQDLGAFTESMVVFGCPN
Regarding B1, the EC50 of hC3 cleavage came to 187 nM.

Regarding B2, the EC50 of hC3 cleavage worked out at 103 nM.

B3 gave an EC50 of hC3 cleavage of 35.2 nM.

B4 displayed an EC50 of hC3 cleavage of 28.1 nM.

As for B5, the EC50 of hC3 cleavage came to 9.42 nM.

Regarding B6, the EC50 of hC3 cleavage was determined as 39.5 nM.

With B7, the EC50 of hC3 cleavage came to 15.3 nM.

As to B8, the EC50 of hC3 cleavage is 20.6 nM.
